According to US20260116991A1 (HAINAN SIMCERE ZAIMING PHARMACEUTICAL, published 2026):
Positions count from the first letter of the chain named.

T1: polypeptide GC3pep (human)
T1 construct: also called membrane proximal polypeptide GC3pep
T1 peptide: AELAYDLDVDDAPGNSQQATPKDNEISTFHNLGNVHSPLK

B1: F1.3.9 (antibody, human IgG1, kappa, V domains shown)
VH: QVQLQQPGTELVKPGASVKLSCKASGYTFTSYWIHWVKQRPGQGLEWIGNINPPNAGTNYNEKFKSKATLTVDKSSSTAYMQLSSLTSEDSAVYYCARGRWLLHDYWGQGTTLTVSS
VL: DIQMTQSPASLSISVGETVTITCRASENIYSNLAWYQQKQGKSPQLLVYGTKNLAEGVPSRFSGSGSGTQYSLKINSLQSEDFGNYYCQHFWGTPYTFGGGTKLEILR
notes: human-murine chimeric antibody
B2: F1.9.19 (antibody, human IgG1, kappa, V domains shown)
VH: DVQLQESGPGLVKPSQSLSLTCSVTGYSITSGYYWNWIRQFPGNRLEWMAYISYDGINNYNPSLKNRISIARDTSTNQFFLKLNSVTSEDTATYYCATTTEVALFDHWGQGTTLTVSS
VL: DVLLTQTPLSLPVSLGDQASISCRSSQNIVHGNGNTYLEWFLQKPGQSPKLLIYKVSNRFSGVPDRFSGSGSGTDFTLKISRVEAEDLGLYYCFQASHVPWTFGGGTKLEIKR
notes: as for B1
B3: F1.62.9 (antibody, human IgG1, kappa, V domains shown)
VH: QVQLQQSDAELVKPGASVKISCKVSGYIFTDHTIHWMKQRPEQGLEWIGYIYPRDGSIKYNENFKGKATLTADKSSSATYMQLNSLTSEDSAVYFCARPIYYDYAYYFDYWGQGTTLTVSS
VL: DVVMTQSPLSLPVSLGDQASISCRSRQSLVHSNGNTYLHWYLQKPGQSPKVLIYKVSNRFSGVPDRFSGSGSGTDFTLKISRVEAEDLGVYFCSQSTHVPYTFGGGTKLEIKR
notes: as for B1
B4: F1.153.1 (antibody, human IgG1, kappa, V domains shown)
VH: QIQLVQSGPELKKPGETVKISCKASGYTFTTAGMQWVQKMPGKGFKWIGWINTHSGEPQYAEDFKGRFAFSLETSASTAYLQISNLKNEDTATYFCARSFYYHGSSFFYFDYWGQGTTLTVSS
VL: DIVMTQSQKFMSTTVGDRVSITCKASQNVGTAVAWYQQKPGQSPKLLIYSASNRYTGVPDRFTGSGSGADFTLTISNMQSEDLADYFCQQYSRYPLTFGAGTKLELKR
notes: as for B1
B5: F2.55.11 (antibody, human IgG1, kappa, V domains shown)
VH: EVKLVESGGGLVKPGGSLKLSCAASGLTFSTCTMSWVRQTPAKRLEWVATISSGGGNTYYPDSVKGRFTISRDNARNTLYLQMSSLRSEDTAMYYCVRLYYDGSPYAMDYWGQGTSVTVSS
VL: DIQMTQTTSSLSASLGDRVTISCRASQDISNHLNWYQQKPDGTVKLLIYYTSRLHSGVPSRFSGSGSGTDYSLTISNLEQEDIATYFCQQDSKPPPTFGSGTKLEIKR
notes: as for B1
B6: F2.154.1 (antibody, human IgG1, kappa, V domains shown)
VH: QVQLQQSGAELVRPGASVKLSCKASGYRFTDYEMHWVKQTPVHGLEWIGTIDPETGNTAYTQKFMDKATLTADKSSSTAYMELRSLTSEDSAVYYCTRGYSFTYWGQGTLATVSA
VL: B2 VL with L4M, G32S, E39Q, F41Y, Y54F, L90V, A96G, W101F, G105T
notes: as for B1
B7: F2.169.2 (antibody, human IgG1, kappa, V domains shown)
VH: EVQLVETGGGLVQPKGSLKLSCAASGFSFNTNAMNWVRQAPGKGLEWVARIRSKSNNYATYYADSVKDRFTISRDDSQSMLYLQMNNLKTEDTAMYYCVRDGYYVLFAYWGQGTLVTVSA
VL: B2 VL with L4M, S25F, N28S, H31N, G32S, L90V, A96G, W101F, G105T
notes: as for B1
B8: F2.23.8 (antibody, human IgG1, kappa, V domains shown)
VH: B6 VH with R28T, I48F, T50A, N57G, T61N, M65R, D66A, G99F, T103A, A111V
VL: B3 VL with S7T, R26S, H39Q, V51L, S81T, G105S
notes: as for B1
B9: F2.39.2 (antibody, human IgG1, kappa, V domains shown)
VH: QVQLQQSGAELVRPGASVKVSCKASGYTFTDYEMHWMKQTPVHGLEWIGANEPETGRSAYDQKFKGKATLTADKSSSTAYMELRSLTSEDSAVYYCTRFYSFAYWGQGTLVTVSA
VL: B3 VL with S7T, R26S, S28G, S32N, V51L, S96N, Y101P
notes: as for B1
B10: F2.92.1 (antibody, human IgG1, kappa, V domains shown)
VH: QVQLQQSGAELVRPGASVKLSCKASGYIFSDYEIHWVKQTPVHGLECIGAVDPETGGTAYNQKFKGKATLTADKSSSTAYMELRSLTSEDSAVYFCTRFYSFAYWGQGTLVTVST
VL: B3 VL with S7T, A19G, R26S, H39Q, V51L, S94C, P100L, Y101P
notes: as for B1
B11: F2.152.3 (antibody, human IgG1, kappa, V domains shown)
VH: EVQLQQSGPELVKPGASVKMSCKASGYTFTDYYMTWVKQSHGKSLEWIGRVNPRNGDTTYNQKFEGRATLTLDKSLSTAFMQLNSLTSEDSAVYYCINSKGHFDYWGQGTTLTVSS
VL: B2 VL with L4M, N28S, G32S, L51S, L90V, A96G, W101P, G105A, I111L
notes: as for B1
B12: F3.38.7 (antibody, human IgG1, kappa, V domains shown)
VH: QVQLQQSGAELVRPGASVKLSCKASGYTFTDYEIHWVKQTPVLGLEWIGAIDPKTGNTAYNQKFMGKATLTADKSSTTAYMDLRSLTSEDSAVYYCTRYFSFAYWGQGTLVTVSA
VL: B2 VL with L4M, N28T, I29F, G32S, E39Q, F41Y, L90V, A96G, W101Y, G105S
notes: as for B1
B13: F3.54.12 (antibody, human IgG1, kappa, V domains shown)
VH: QVQLQQSGAELVRPGASVKLSCKASGYTFTDYEMHWVKQTPVHGLEWIGAIDPETGNTAYIQKFKGKATLTTDKSSSTAYMELRSLTSEDSAVYYCTRFYSYSHWGQGTTLTVSS
VL: B3 VL with S7T, R26S, V51L, G71S, S96N, Y101P
notes: as for B1
B14: F3.81.19 (antibody, human IgG1, kappa, V domains shown)
VH: B6 VH with R28T, T61N, M65K, D66G, G99P, F102L, A111V
VL: B2 VL with N28S, I29F, G32S, N35D, E39Q, F41Y, L90V, A96G, W101Y, G105S
notes: as for B1
B15: F4.13.7 (antibody, human IgG1, kappa, V domains shown)
VH: QVQLQQPGAELVKPGASVKLSCKASGYTFTNNWVHWVKQRPGQGLEWTGMIHPDSGSTIYNEKFQSKATLTVDKSSSTAYMQLSSLTSEDSAVYYCARGYYDSSSYYAMDYWGQGTSVTVSS
VL: NIQMTQTTSSLSASLGDRVTISCSASQGIFNYLNWYQQKPDGTVKLLIYYTSSLHSGVPSRFSGSGSGTDYSLTISNLEPEDIATYYCQQYSKLPWTFGGGTKLEIKR
notes: as for B1
B16: F4.18.4 (antibody, human IgG1, kappa, V domains shown)
VH: QVQLHQSGAEMAKPGASVNLSCKTSGFTFTDYGISWVKQRTRQGLEWIGDIYPRHINIYYNEKFKDKATLTADRSSSTAYMELRSMTSEDSAVYFCARRGTTGRGALDYWGQGTSLTVSS
VL: DILLTQSPAILSVSPGERVSFSCRASQSIGTSIHWYQQRTNGSPRLLIKYAFESISGIPSRFGGSGSRTDFTLTINSVESEDIADYYCQQTYNWPYTFGGGTKLEIKR
notes: as for B1

Key:
polypeptide GC3pep [1] = molecular target: T1, polypeptide GC3pep; test: ELISA, GC3pep coated, antibody 1 nM;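 note: bound antibody detected with an HRP-conjugated secondary antibody and TMB substrate, reaction stopped with HCl, after 2 h binding at 37 °C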
Method: (§1) The plate was sealed with a plastic film and incubated at 4° C. overnight, washed twice with PBS the next day, and a blocking solution [PBS+2% (w/w) BSA] was added for blocking at room temperature for 2 h. […] After incubation at 37° C. for 2 h, the plate was washed 3 times with PBS. A horseradish peroxidase (HRP)-labeled secondary antibody (purchased from Merck, Cat. No. AP113P) was added for incubation at 37° C. for 1 h, and the plate was washed 5 times with PBS. A TMB substrate was added at 50 μL/well for incubation at room temperature for 10 min, then a stop solution (1.0M HCl) was added at 50 μL/well.

polypeptide GC3pep [2] = molecular target: T1, polypeptide GC3pep; test: ELISA, GC3pep coated, antibody 10 nM;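 note: antibody bound to the coated peptide for 2 h at 37 °C, detected through an HRP-conjugated secondary antibody with TMB colour development stopped by acid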
polypeptide GC3pep [3] = molecular target: T1, polypeptide GC3pep; test: ELISA, GC3pep coated, antibody 0.0001 nM
polypeptide GC3pep [4] = molecular target: T1, polypeptide GC3pep; test: ELISA, GC3pep coated, antibody 100 nM;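 note: detection with an HRP-conjugated secondary antibody and TMB substrate, color reaction stopped with HCl before absorbance reading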
Method: as §1

polypeptide GC3pep [5] = molecular target: T1, polypeptide GC3pep; test: ELISA, GC3pep coated, antibody 0.01 nM;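 note: bound antibody detected with an HRP-conjugated secondary antibody and TMB substrate, color reaction stopped with HCl before reading absorbance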
Method: as §1

polypeptide GC3pep [6] = molecular target: T1, polypeptide GC3pep; test: ELISA, GC3pep coated, antibody 0.1 nM;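 note: antibody allowed to bind the coated plate 2 h at 37 °C, then detected via HRP-conjugated secondary antibody and TMB development for 10 min, stopped with HCl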
polypeptide GC3pep [7] = molecular target: T1, polypeptide GC3pep; test: ELISA, GC3pep coated, antibody 0.001 nM

Row | Binder | OD450 nm (polypeptide GC3pep [1]) | OD450 nm (polypeptide GC3pep [2]) | OD450 nm (polypeptide GC3pep [3]) | OD450 nm (polypeptide GC3pep [4]) | OD450 nm (polypeptide GC3pep [5]) | OD450 nm (polypeptide GC3pep [6]) | OD450 nm (polypeptide GC3pep [7])
1 | B1 | 0.05 OD450 nm | 0.06 OD450 nm | 0.07 OD450 nm | 0.13 OD450 nm | 0.05 OD450 nm | 0.05 OD450 nm | 0.05 OD450 nm
2 | B2 | 0.06 OD450 nm | 0.06 OD450 nm | 0.05 OD450 nm | 0.08 OD450 nm | 0.05 OD450 nm | 0.04 OD450 nm | 0.07 OD450 nm
3 | B3 | 0.05 OD450 nm | 0.07 OD450 nm | 0.05 OD450 nm | 0.13 OD450 nm | 0.05 OD450 nm | 0.05 OD450 nm | 0.05 OD450 nm
4 | B4 | 0.04 OD450 nm | 0.05 OD450 nm | 0.06 OD450 nm | 0.11 OD450 nm | 0.04 OD450 nm | 0.05 OD450 nm | 0.05 OD450 nm
5 | B5 | 2.41 OD450 nm | 2.51 OD450 nm | 0.05 OD450 nm | 2.85 OD450 nm | 0.26 OD450 nm | 1.34 OD450 nm | 0.07 OD450 nm
6 | B6 | 2.29 OD450 nm | 2.42 OD450 nm | 0.05 OD450 nm | 2.73 OD450 nm | 0.2 OD450 nm | 1.13 OD450 nm | 0.06 OD450 nm
7 | B7 | 2.36 OD450 nm | 2.38 OD450 nm | 0.05 OD450 nm | 2.73 OD450 nm | 0.24 OD450 nm | 1.25 OD450 nm | 0.06 OD450 nm
8 | B8 | 2.12 OD450 nm | 2.42 OD450 nm | 0.07 OD450 nm | 2.51 OD450 nm | 0.3 OD450 nm | 1.38 OD450 nm | 0.1 OD450 nm
9 | B9 | 2.21 OD450 nm | 2.38 OD450 nm | 0.05 OD450 nm | 2.58 OD450 nm | 0.32 OD450 nm | 1.35 OD450 nm | 0.09 OD450 nm
10 | B10 | 1.92 OD450 nm | 2.28 OD450 nm | 0.05 OD450 nm | 2.41 OD450 nm | 0.15 OD450 nm | 0.85 OD450 nm | 0.07 OD450 nm
11 | B11 | 2.18 OD450 nm | 2.43 OD450 nm | 0.05 OD450 nm | 2.63 OD450 nm | 0.35 OD450 nm | 1.53 OD450 nm | 0.09 OD450 nm
12 | B12 | 2.57 OD450 nm | 2.83 OD450 nm | 0.05 OD450 nm | 3.22 OD450 nm | 0.19 OD450 nm | 1.01 OD450 nm | 0.06 OD450 nm
13 | B13 | 2.64 OD450 nm | 2.8 OD450 nm | 0.07 OD450 nm | 3.03 OD450 nm | 0.33 OD450 nm | 1.63 OD450 nm | 0.09 OD450 nm
14 | B14 | 1.21 OD450 nm | 2.88 OD450 nm | 0.05 OD450 nm | 2.94 OD450 nm | 0.05 OD450 nm | 0.19 OD450 nm | 0.05 OD450 nm
15 | B15 | 0.03 OD450 nm | 0.04 OD450 nm | 0.05 OD450 nm | 0.06 OD450 nm | 0.04 OD450 nm | 0.03 OD450 nm | 0.08 OD450 nm
16 | B16 | 0.03 OD450 nm | 0.03 OD450 nm | 0.04 OD450 nm | 0.06 OD450 nm | 0.04 OD450 nm | 0.03 OD450 nm | 0.04 OD450 nm
